Test results as given in US11098105 (Zymeworks, dated 2021).
Substitutions are numbered along the chain they refer to. Each block holds one binder with its values, some of them ahead of it.

Tests used:
Human C1q = Human C1q (human, UniProt P02745 23-245; P02746 28-253; P02747 29-245); experiment: cell-based or functional assay
FcγRIIIaV = target: T1, FcγRIIIaV (UniProt P08637 17-208); experiment: SPR, antibody captured by goat anti-IgG, FcγR injected, equilibrium fit
T1 construct: also called 3aV; 3av
Protocol: (§1) Affinity of FcgR to antibody Fc was measured by SPR using a ProteOn XPR36 at 25° C. with PBS containing 3.4 mM EDTA, and 0.05% Tween 20 at pH 7.4 as the running buffer. […] 40 μg/mL of purified rituximab-based antibodies were indirectly captured by injecting at 25 μL/min for 240s (resulting in approx. 500RUs capture) in the ligand direction, following a buffer injection to establish a stable baseline in the analyte direction. FcγRs were subsequently injected at 50 μL/min for 120s with a 180s dissociation phase to obtain a set of binding sensorgrams. Resultant Kd (affinity) values were determined from double-referenced sensorgrams using the Equilibrium Fit model in the Proteon Manager software. Reported values as the mean of two or three independent runs.

FcγRIIaR [1] = target: T2, FcγRIIaR (UniProt P12318 36-218); experiment: as above
T2 construct: also called 2aR; 2ar
T2 sequence (looked up): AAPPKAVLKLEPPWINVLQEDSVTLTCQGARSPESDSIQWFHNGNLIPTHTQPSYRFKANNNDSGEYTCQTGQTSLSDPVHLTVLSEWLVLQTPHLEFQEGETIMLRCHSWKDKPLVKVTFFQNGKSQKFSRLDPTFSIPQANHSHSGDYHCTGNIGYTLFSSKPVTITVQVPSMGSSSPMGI
Protocol: as §1

FcγRIIb [2] = target: T3, FcγRIIb (UniProt P31994 46-217); experiment: as above
T3 construct: also called 2b; CD32b
T3 sequence (looked up): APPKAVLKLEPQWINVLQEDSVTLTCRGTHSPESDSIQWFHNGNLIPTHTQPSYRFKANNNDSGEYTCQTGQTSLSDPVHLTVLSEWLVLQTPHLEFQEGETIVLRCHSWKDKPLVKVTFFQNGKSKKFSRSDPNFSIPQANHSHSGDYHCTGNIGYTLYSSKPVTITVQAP
Protocol: as §1

FcγRIIIaF [3] = target: T4, FcγRIIIaF (UniProt P08637 17-208); experiment: as above
T4 construct: also called 3aF; 3af
Protocol: as §1

FcγRIIaH [4] = target: T5, FcγRIIaH (UniProt P12318 36-218); experiment: as above
T5 construct: also called 2aH; 2ah
T5 sequence (looked up): T2 sequence (looked up) with R132H
Protocol: as §1

[5] = target: CD16a(158V/V) on NK92 effector cells (UniProt P08637 17-254, limits assumed); experiment: cell-based or functional assay
FcγRIIaR [6] = target: T2, FcγRIIaR; experiment: SPR, antibody captured by goat anti-IgG, FcγR injected
FcγRIIb [7] = target: T3, FcγRIIb; experiment: as above
FcγRIIIaF [8] = target: T4, FcγRIIIaF; experiment: as above
FcγRIIaH [9] = target: T5, FcγRIIaH; experiment: as above

Human C1q, sequence (P02745 23-245 limits assumed, chain 1 of 3): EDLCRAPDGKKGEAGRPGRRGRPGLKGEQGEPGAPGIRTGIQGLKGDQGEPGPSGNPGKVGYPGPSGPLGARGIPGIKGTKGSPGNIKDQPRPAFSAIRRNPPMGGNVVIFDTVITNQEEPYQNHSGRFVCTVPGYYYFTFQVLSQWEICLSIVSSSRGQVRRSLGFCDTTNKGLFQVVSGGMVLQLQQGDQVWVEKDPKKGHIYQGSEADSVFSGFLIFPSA
Human C1q, sequence (P02746 28-253 limits assumed, chain 2 of 3): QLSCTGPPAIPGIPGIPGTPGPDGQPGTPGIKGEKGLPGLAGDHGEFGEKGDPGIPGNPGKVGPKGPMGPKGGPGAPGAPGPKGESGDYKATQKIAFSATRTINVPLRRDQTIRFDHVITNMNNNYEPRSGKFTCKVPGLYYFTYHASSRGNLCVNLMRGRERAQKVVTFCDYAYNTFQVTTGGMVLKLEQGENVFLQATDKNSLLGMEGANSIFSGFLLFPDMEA
Human C1q, sequence (P02747 29-245 limits assumed, chain 3 of 3): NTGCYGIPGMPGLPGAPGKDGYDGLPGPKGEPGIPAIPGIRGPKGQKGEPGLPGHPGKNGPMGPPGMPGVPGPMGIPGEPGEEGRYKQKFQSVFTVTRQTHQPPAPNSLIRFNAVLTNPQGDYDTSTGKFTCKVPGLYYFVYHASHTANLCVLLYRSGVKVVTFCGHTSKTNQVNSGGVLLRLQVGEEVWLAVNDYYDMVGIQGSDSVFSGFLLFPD

- CDC EC50 [nM], Daudi cells, 10% normal human serum (Human C1q): 2.9 nM
- CDC Maximum Lysis, Daudi cells, 10% normal human serum (Human C1q): 96 % cell lysis
- SPR Ka ratio with respect to wild-type trastuzumab (FcγRIIIaV): 1.34
- SPR Ka ratio with respect to wild-type trastuzumab (FcγRIIaR [1]): 1.47
- SPR Ka ratio with respect to wild-type trastuzumab (FcγRIIb [2]): 1.85
- SPR Ka ratio with respect to wild-type trastuzumab (FcγRIIIaF [3]): 1.36
- SPR Ka ratio with respect to wild-type trastuzumab (FcγRIIaH [4]): 1.87
- ADCC EC50 [nM], Daudi cells, NK92/CD16a(158V/V) effector cells [5]: 0.1 nM
- ADCC Maximum Lysis, Daudi cells, NK92/CD16a(158V/V) effector cells [5]: 66 % cell lysis
B1: Control WT Rituximab 1261 (antibody, human IgG1, kappa)
heavy 1: QVQLQQPGAELVKPGASVKMSCKASGYTFTSYNMHWVKQTPGRGLEWIGAIYPGNGDTSYNQKFKGKATLTADKSSSTAYMQLSSLTSEDSAVYYCARSTYYGGDWYFNVWGAGTTVTVSAASTKGPSVFPLAPSSKSTSGGTAALGCLVKDYFPEPVTVSWNSGALTSGVHTFPAVLQSSGLYSLSSVVTVPSSSLGTQTYICNVNHKPSNTKVDKKVEPKSCDKTHTCPPCPAPELLGGPSVFLFPPKPKDTLMISRTPEVTCVVVDVSHEDPEVKFNWYVDGVEVHNAKTKPREEQYNSTYRVVSVLTVLHQDWLNGKEYKCKVSNKALPAPIEKTISKAKGQPREPQVYVYPPSRDELTKNQVSLTCLVKGFYPSDIAVEWESNGQPENNYKTTPPVLDSDGSFALVSKLTVDKSRWQQGNVFSCSVMHEALHNHYTQKSLSLSPGK
heavy 2: not shown
light: QIVLSQSPAILSASPGEKVTMTCRASSSVSYIHWFQQKPGSSPKPWIYATSNLASGVPVRFSGSGSGTSYSLTISRVEAEDAATYYCQQWTSNPPTFGGGTKLEIKRTVAAPSVFIFPPSDEQLKSGTASVVCLLNNFYPREAKVQWKVDNALQSGNSQESVTEQDSKDSTYSLSSTLTLSKADYEKHKVYACEVTHQGLSSPVTKSFNRGEC
notes: also called v1261; V1261

- CDC EC50 [nM], Daudi cells, 10% normal human serum (Human C1q): 47.9 nM
- CDC Maximum Lysis, Daudi cells, 10% normal human serum (Human C1q): 68 % cell lysis
- SPR Ka ratio with respect to wild-type trastuzumab (FcγRIIIaV): 0.08
- binding result (FcγRIIaR [6]): no binding
- binding result (FcγRIIb [7]): no binding
- binding result (FcγRIIIaF [8]): no binding
- binding result (FcγRIIaH [9]): no binding
B2: AAC9, rituximab-based asymmetric antibody construct (antibody, human IgG1, kappa)
heavy 1: B1 heavy 1 with L238D, L239E
heavy 2: B1 heavy 1 with E237K, L238R, L239R, Y355L, T370L, K396L, T398W, A409F, V411Y
light: B1 light

- CDC EC50 [nM], Daudi cells, 10% normal human serum (Human C1q): 51.6 nM
- CDC Maximum Lysis, Daudi cells, 10% normal human serum (Human C1q): 63 % cell lysis
- binding result (FcγRIIaR [6]): no binding
- binding result (FcγRIIb [7]): no binding
- binding result (FcγRIIIaF [8]): no binding
- binding result (FcγRIIaH [9]): no binding
- ADCC EC50 [nM], Daudi cells, NK92/CD16a(158V/V) effector cells [5]: > 100 nM
B3: AAC11, rituximab-based asymmetric antibody construct (antibody, human IgG1, kappa)
heavy 1: B1 heavy 1 with L238D, L239E, E273K
heavy 2: B1 heavy 1 with E237K, L238R, L239R, E273K, Y355L, T370L, K396L, T398W, A409F, V411Y
light: B1 light

- CDC EC50 [nM], Daudi cells, 10% normal human serum (Human C1q): 54.6 nM
- CDC Maximum Lysis, Daudi cells, 10% normal human serum (Human C1q): 67 % cell lysis
- SPR Ka ratio with respect to wild-type trastuzumab (FcγRIIIaV): 0.08
- binding result (FcγRIIaR [6]): no binding
- binding result (FcγRIIb [7]): no binding
- binding result (FcγRIIIaF [8]): no binding
- binding result (FcγRIIaH [9]): no binding
- ADCC EC50 [nM], Daudi cells, NK92/CD16a(158V/V) effector cells [5]: 23.1 nM
- ADCC Maximum Lysis, Daudi cells, NK92/CD16a(158V/V) effector cells [5]: 20 % cell lysis
B4: AAC12, rituximab-based asymmetric antibody construct (antibody, human IgG1, kappa)
heavy 1: B1 heavy 1 with L238D, L239E, K326A
heavy 2: B1 heavy 1 with E237K, L238R, L239R, K326A, Y355L, T370L, K396L, T398W, A409F, V411Y
light: B1 light
